Results reported in US6140466, “Zinc finger protein derivatives and methods therefor” (The Scripps Research Institute).

What was measured:
TFIIIA zf1-3 = TFIIIA zf1-3 (UniProt P03001 P03001:33-123); assay: EMSA; ambient temperature; complete 23 bp sequence not given; details: tags: first three zinc fingers of TFIIIA; label: 32P
From the text: An experiment was designed to determine whether the binding of this polypeptide to its recognition sequence, placed close to an active RNA polymerase promoter, would inhibit the activity of that promoter in vitro. The following experiments were done to provide such a test system. A 23 bp oligonucleotide (Liao, et al., 1992, supra) containing the 13 bp recognition sequence for zf1–3 was cloned into the polylinker region of plasmid pBluescript SK+ (Stratagene, La Jolla, Calif.), near the promoter sequence for T7 RNA polymerase. The parent plasmid was digested with the restriction enzyme EcoRV and, after dephosphorylation with calf intestinal alkaline phosphatase, the phosphorylated 23 bp oligonucleotide was inserted by ligation with T4 DNA ligase. The ligation product was used for transformation of DH5α *E. coli* cells. Clones harboring 23 bp inserts were identified by restriction digestion of miniprep DNA. The success of cloning was also verified by DNA sequence analysis. The DNA binding activity of the preparation of recombinant zf1–3 was also determined by gel mobility shift analysis with a 56 bp radiolabeled EcoRI/XhoI restriction fragment derived from the cone containing the binding site for zf1–3 and with the radiolabeled 23 bp oligonucleotide. Gel shift assays were done as described (Liao, et al., supra; Fried, et al., *Nucl. Acids., Res.,* 9:6505, 1981). […]

(C7 finger)x3 = (C7 finger)x3 (synthetic (Zif268 variant)); assay: SPR; details: hairpin
MBP-C7 = MBP-C7 (synthetic (Zif268 variant, mouse), UniProt P08046); assay: EMSA; 0.1 mM ZnCl2, RT
Zif268 fingers 1-3 = Zif268 fingers 1-3 (Mus musculus, UniProt P08046 SEQ:1-91); assay: SPR; zinc buffer (90 uM ZnCl2, 5 mM DTT); Kd from kon/koff
Zif268 variant C7 = Zif268 variant C7 (synthetic (Zif268 variant, mouse), UniProt P08046); assay: SPR; 5-fold slower dissociation; Kd in FIG. 11 only

Sequence of TFIIIA zf1-3 (P03001 33-123, one chain of several): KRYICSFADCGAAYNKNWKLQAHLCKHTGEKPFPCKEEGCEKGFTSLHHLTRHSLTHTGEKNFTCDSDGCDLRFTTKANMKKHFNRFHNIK
Sequence of (C7 finger)x3 (synthetic (Zif268 variant)) (chain, as listed by the source): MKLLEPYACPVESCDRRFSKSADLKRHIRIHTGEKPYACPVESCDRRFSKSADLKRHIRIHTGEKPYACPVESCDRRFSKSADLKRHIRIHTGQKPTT

B1: zf1-3 binding site oligo (23 bp containing 13 bp site) (dsDNA)
DNA 1: TGGATGGGAGACC
DNA 2: GGTCTCCCATCCA
Question: Does B1 bind (TFIIIA zf1-3)?
Answer: Result: binds

B2: GCG-GCG-GCG hairpin (structured_DNA)
DNA: CCTCGCCGCCGCGGGTTTTCCCGCGCCCCCGAGG
Question: How did the Kd ((C7 finger)x3) turn out when B2 was run?
Answer: The Kd was 9 nM.

B3: C7 site probe (dsDNA)
DNA 1: GATGTATGTAGCGTGGGCGTAAGTAATGC
DNA 2: GCATTACTTACGCCCACGCTACATACATC
Question: B3 was tested. Which Kd (MBP-C7) did it give?
Answer: Its Kd is 31.8 nM.

B4: Z268N consensus hairpin (structured_DNA)
DNA: CCTGCGTGGGCGCCCTTTTGGGCGCCCACGCAGG
Question: What does the source list for B4?
Answer: Kd (Zif268 fingers 1-3): 6.5 nM; binding signal (Zif268 variant C7): 13 fold tighter than Zif268
